Experimental data from the Immune Epitope Database (IEDB).

How the values were obtained:
HLA-A*69:01 [1] = test: IEDB peptide-MHC binding, purified MHC/competitive/fluorescence; filed as Kd, often an IC50 or EC50 that approximates it; ≥ and ≤ were set here for values at or beyond the usual limits of such assays
HLA-B*46:01 = test: as above
HLA-B*18:01 [2] = test: as above
HLA-B*27:03 = test: as above
HLA-A*02:01 [3] = test: as above
HLA-B*39:01 [4] = test: as above
HLA-B*57:01 [5] = test: as above
HLA-A*23:01 = test: IEDB peptide-MHC binding, purified MHC/direct/fluorescence; filed as Kd, often an IC50 or EC50 that approximates it; ≥ and ≤ were set here for values at or beyond the usual limits of such assays
HLA-A*02:16 = test: as above
HLA-A*02:11 = test: as above
HLA-A*03:01 = test: as above
HLA-A*24:03 = test: as above
HLA-A*02:12 = test: as above
HLA-A*02:19 = test: as above
HLA-A*26:01 [6] = test: as above; conditions: source organism: Sudan ebolavirus - Uganda (2000)
HLA-A*02:03 = test: as above
HLA-A*68:02 = test: as above
HLA-A*26:02 = test: IEDB peptide-MHC binding, purified MHC/competitive/fluorescence; filed as Kd, often an IC50 or EC50 that approximates it; ≥ and ≤ were set here for values at or beyond the usual limits of such assays; conditions: source organism: Orthomarburgvirus marburgense
HLA-B*15:17 = test: as above
HLA-A*02:06 = test: as above; conditions: source organism: Orthomarburgvirus marburgense
HLA-A*31:01 = test: as above
HLA-A*69:01 [7] = test: IEDB peptide-MHC binding, purified MHC/direct/fluorescence; filed as Kd, often an IC50 or EC50 that approximates it; ≥ and ≤ were set here for values at or beyond the usual limits of such assays; conditions: source organism: Marburg virus - Musoke, Kenya, 1980
HLA-A*11:01 = test: as above
HLA-B*58:01 = test: as above; conditions: source organism: Ravn virus - Ravn, Kenya, 1987
HLA-A*01:01 = test: as above; conditions: source organism: Marburg virus - Musoke, Kenya, 1980
HLA-B*18:01 [8] = test: as above; conditions: source organism: Marburg virus - Musoke, Kenya, 1980
HLA-B*15:01 [9] = test: as above; conditions: source organism: Marburg virus - Musoke, Kenya, 1980
HLA-A*02:01 [10] = test: as above; conditions: source organism: Marburg virus - Musoke, Kenya, 1980
HLA-B*15:09 = test: as above; conditions: source organism: Ravn virus - Ravn, Kenya, 1987
HLA-B*07:02 = test: as above
HLA-B*39:01 [11] = test: as above; conditions: source organism: Ravn virus - Ravn, Kenya, 1987
HLA-A*26:03 = test: as above; conditions: source organism: Ravn virus - Ravn, Kenya, 1987
HLA-B*57:01 [12] = test: as above; conditions: source organism: Marburg virus - Musoke, Kenya, 1980
HLA-B*51:01 = test: IEDB peptide-MHC binding, purified MHC/competitive/fluorescence; filed as Kd, often an IC50 or EC50 that approximates it; ≥ and ≤ were set here for values at or beyond the usual limits of such assays
HLA-A*26:01 [13] = test: as above
HLA-A*29:02 = test: IEDB peptide-MHC binding, purified MHC/direct/fluorescence; filed as Kd, often an IC50 or EC50 that approximates it; ≥ and ≤ were set here for values at or beyond the usual limits of such assays
HLA-B*15:01 [14] = test: IEDB peptide-MHC binding, purified MHC/competitive/fluorescence; filed as Kd, often an IC50 or EC50 that approximates it; ≥ and ≤ were set here for values at or beyond the usual limits of such assays
HLA-B*35:01 = test: as above; conditions: source organism: Zaire ebolavirus
[15] = source organism: Zaire ebolavirus
[16] = source organism: Orthomarburgvirus marburgense
[17] = source organism: Marburg virus - Musoke, Kenya, 1980
[18] = source organism: Bacillus thuringiensis serovar israelensis ATCC 35646
[19] = source organism: Bacillus cereus NVH0597-99
[20] = source organism: Ravn virus - Ravn, Kenya, 1987
[21] = source organism: Vibrio vulnificus YJ016
[22] = source organism: Vibrio vulnificus CMCP6
[23] = source organism: Orthohantavirus tulaense

Sequence: ATAAATEAY
- Kd (HLA-A*69:01 [1]; [15]): ≥ 20 µM
- Kd (HLA-B*46:01; [15]): ≥ 20 µM
- Kd (HLA-B*18:01 [2]; [15]): ≥ 20 µM
- Kd (HLA-B*27:03; [15]): ≥ 20 µM
- Kd (HLA-A*02:01 [3]; [15]): ≥ 20 µM
- Kd (HLA-B*39:01 [4]; [15]): ≥ 20 µM
- Kd (HLA-B*57:01 [5]; [15]): ≥ 20 µM
- Kd (HLA-A*23:01; [15]): ≥ 20 µM
- Kd (HLA-A*02:16; [15]): ≥ 20 µM
- Kd (HLA-A*02:11; [15]): ≥ 20 µM
- Kd (HLA-A*03:01; [15]): ≥ 20 µM
- Kd (HLA-A*24:03; [15]): ≥ 20 µM
- Kd (HLA-A*02:12; [15]): ≥ 20 µM
- Kd (HLA-A*02:19; [15]): ≥ 20 µM
- Kd (HLA-A*26:01 [6]): 0.216 µM
- Kd (HLA-A*02:03; [15]): ≥ 20 µM
- Kd (HLA-A*68:02; [15]): ≥ 20 µM

Sequence: LFLSFCSLF
- Kd (HLA-A*26:02): ≥ 20 µM
- Kd (HLA-B*15:17; [16]): ≥ 20 µM
- Kd (HLA-A*02:06): ≥ 20 µM
- Kd (HLA-A*31:01; [16]): ≥ 20 µM
- Kd (HLA-A*69:01 [7]): ≥ 20 µM
- Kd (HLA-A*11:01; [17]): ≥ 20 µM
- Kd (HLA-A*24:03; [17]): 0.245 µM
- Kd (HLA-B*58:01): 1.38 µM
- Kd (HLA-A*01:01): ≥ 20 µM
- Kd (HLA-B*18:01 [8]): ≥ 20 µM
- Kd (HLA-B*15:01 [9]): ≥ 20 µM
- Kd (HLA-A*02:01 [10]): ≥ 20 µM
- Kd (HLA-B*15:09): ≥ 20 µM
- Kd (HLA-B*07:02; [17]): ≥ 20 µM
- Kd (HLA-A*68:02; [17]): ≥ 20 µM
- Kd (HLA-B*39:01 [11]): ≥ 20 µM
- Kd (HLA-A*26:03): ≥ 20 µM
- Kd (HLA-B*57:01 [12]): ≥ 20 µM

Sequence: ITMYVAFEQ
- Kd (HLA-A*69:01 [1]; [18]): ≥ 20 µM
- Kd (HLA-B*15:17; [18]): ≥ 20 µM
- Kd (HLA-B*51:01; [18]): ≥ 20 µM
- Kd (HLA-B*46:01; [18]): ≥ 20 µM
- Kd (HLA-B*18:01 [2]; [18]): ≥ 20 µM
- Kd (HLA-B*27:03; [18]): ≥ 20 µM
- Kd (HLA-A*02:01 [3]; [18]): ≥ 20 µM
- Kd (HLA-A*26:01 [13]; [18]): ≥ 20 µM
- Kd (HLA-B*39:01 [4]; [18]): ≥ 20 µM
- Kd (HLA-B*57:01 [5]; [18]): ≥ 20 µM
- Kd (HLA-A*29:02; [19]): ≥ 20 µM
- Kd (HLA-A*23:01; [19]): ≥ 20 µM
- Kd (HLA-A*02:16; [19]): ≥ 20 µM
- Kd (HLA-A*11:01; [19]): ≥ 20 µM
- Kd (HLA-A*02:11; [19]): ≥ 20 µM
- Kd (HLA-A*03:01; [19]): ≥ 20 µM
- Kd (HLA-A*24:03; [19]): ≥ 20 µM
- Kd (HLA-A*02:12; [19]): ≥ 20 µM
- Kd (HLA-A*02:19; [19]): ≥ 20 µM
- Kd (HLA-A*02:03; [19]): ≥ 20 µM
- Kd (HLA-A*68:02; [19]): ≥ 20 µM

Sequence: GLSFLNPEK
- Kd (HLA-A*69:01 [1]; [15]): ≥ 20 µM
- Kd (HLA-B*15:17; [15]): ≥ 20 µM
- Kd (HLA-B*51:01; [15]): ≥ 20 µM
- Kd (HLA-B*46:01; [15]): ≥ 20 µM
- Kd (HLA-B*18:01 [2]; [15]): ≥ 20 µM
- Kd (HLA-B*27:03; [15]): ≥ 20 µM
- Kd (HLA-B*15:01 [14]; [15]): ≥ 20 µM
- Kd (HLA-A*26:01 [13]; [15]): ≥ 20 µM
- Kd (HLA-B*39:01 [4]; [15]): ≥ 20 µM
- Kd (HLA-B*57:01 [5]; [15]): ≥ 20 µM
- Kd (HLA-A*23:01; [20]): ≥ 20 µM
- Kd (HLA-A*03:01; source organism: Sudan ebolavirus - Maleo (1979)): 0.152 µM
- Kd (HLA-A*24:03; [20]): ≥ 20 µM
- Kd (HLA-A*02:12; [20]): ≥ 20 µM
- Kd (HLA-A*02:19; [20]): ≥ 20 µM
- Kd (HLA-A*02:03; [20]): ≥ 20 µM
- Kd (HLA-A*68:02; [20]): ≥ 20 µM

Sequence: SVMSTFFWE
- Kd (HLA-A*69:01 [1]; [21]): ≥ 20 µM
- Kd (HLA-B*15:17; [21]): ≥ 20 µM
- Kd (HLA-B*51:01; [21]): ≥ 20 µM
- Kd (HLA-B*46:01; [21]): ≥ 20 µM
- Kd (HLA-B*18:01 [2]; [21]): ≥ 20 µM
- Kd (HLA-B*27:03; [21]): ≥ 20 µM
- Kd (HLA-A*02:01 [3]; [21]): ≥ 20 µM
- Kd (HLA-A*26:01 [13]; [21]): ≥ 20 µM
- Kd (HLA-B*39:01 [4]; [21]): ≥ 20 µM
- Kd (HLA-B*57:01 [5]; [21]): ≥ 20 µM
- Kd (HLA-A*29:02; [22]): ≥ 20 µM
- Kd (HLA-A*23:01; [22]): ≥ 20 µM
- Kd (HLA-A*02:16; [22]): ≥ 20 µM
- Kd (HLA-A*11:01; [22]): 0.35 µM
- Kd (HLA-A*02:11; [22]): ≥ 20 µM
- Kd (HLA-A*03:01; [22]): ≥ 20 µM
- Kd (HLA-A*24:03; [22]): ≥ 20 µM
- Kd (HLA-A*02:12; [22]): ≥ 20 µM
- Kd (HLA-A*02:19; [22]): ≥ 20 µM
- Kd (HLA-A*02:03; [22]): ≥ 20 µM
- Kd (HLA-A*68:02; [22]): ≥ 20 µM

Sequence: FPSNMMVVT
- Kd (HLA-A*69:01 [1]; [15]): ≥ 20 µM
- Kd (HLA-B*15:17; [15]): ≥ 20 µM
- Kd (HLA-B*51:01; [15]): ≥ 20 µM
- Kd (HLA-B*35:01): 0.0004 µM
- Kd (HLA-B*46:01; [15]): ≥ 20 µM
- Kd (HLA-B*18:01 [2]; [15]): ≥ 20 µM
- Kd (HLA-B*27:03; [15]): ≥ 20 µM
- Kd (HLA-B*15:01 [14]; [15]): ≥ 20 µM
- Kd (HLA-A*02:01 [3]; [15]): ≥ 20 µM
- Kd (HLA-A*26:01 [13]; [15]): ≥ 20 µM
- Kd (HLA-B*39:01 [4]; [15]): ≥ 20 µM
- Kd (HLA-B*57:01 [5]; [15]): ≥ 20 µM
- Kd (HLA-A*29:02; [20]): ≥ 20 µM
- Kd (HLA-A*23:01; [20]): ≥ 20 µM
- Kd (HLA-A*02:16; [20]): ≥ 20 µM
- Kd (HLA-A*02:11; [20]): ≥ 20 µM
- Kd (HLA-A*03:01; [20]): ≥ 20 µM
- Kd (HLA-A*24:03; [20]): ≥ 20 µM
- Kd (HLA-A*02:12; [20]): ≥ 20 µM
- Kd (HLA-A*02:19; [20]): ≥ 20 µM
- Kd (HLA-B*07:02; [15]): 0.751 µM
- Kd (HLA-A*02:03; [20]): ≥ 20 µM
- Kd (HLA-A*68:02; [20]): ≥ 20 µM

Sequence: SLMSRVVYK
- Kd (HLA-A*69:01 [1]; [23]): ≥ 20 µM
- Kd (HLA-B*15:17; [23]): ≥ 20 µM
- Kd (HLA-B*51:01; [23]): ≥ 20 µM
- Kd (HLA-B*46:01; [23]): ≥ 20 µM
- Kd (HLA-B*18:01 [2]; [23]): ≥ 20 µM
- Kd (HLA-B*27:03; [23]): ≥ 20 µM
- Kd (HLA-B*15:01 [14]; [23]): ≥ 20 µM
- Kd (HLA-A*26:01 [13]; [23]): ≥ 20 µM
- Kd (HLA-B*39:01 [4]; [23]): ≥ 20 µM
- Kd (HLA-A*31:01; [23]): 0.0031 µM
- Kd (HLA-B*57:01 [5]; [23]): ≥ 20 µM
- Kd (HLA-A*29:02; [23]): ≥ 20 µM
- Kd (HLA-A*23:01; [23]): ≥ 20 µM
- Kd (HLA-A*02:16; [23]): ≥ 20 µM
- Kd (HLA-A*03:01; source organism: Orthohantavirus prospectense): 0.0772 µM
- Kd (HLA-A*24:03; [23]): ≥ 20 µM
- Kd (HLA-A*02:12; [23]): ≥ 20 µM
- Kd (HLA-A*02:19; [23]): ≥ 20 µM
- Kd (HLA-A*02:03; [23]): ≥ 20 µM
- Kd (HLA-A*68:02; [23]): ≥ 20 µM
